Reference: the nanobody polyreactivity screen of Harvey et al. (2022)

assay: yeast display, Sf9 membrane polyspecificity reagent, FACS + sequencing; frameworks hold sequencing errors
Procedure, shortened: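 Sorting gates, low and high (top ~1%), were placed on anti-HA fluorescence to track expression and on streptavidin fluorescence to track reagent binding. A clone's polyreactivity label is taken from the gate it came out of. The reagent was 10% biotinylated, detergent-solubilized Sf9 membrane, applied for 1 hour at 4 °C to galactose-induced yeast display cells.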

Row | Sequence | polyreactivity (PSR sort gate)
1 | QVQLVESGGGLVQAGGSLRLSCAASGSISGYNAMGWYRQAPGKERELVAVITTDGSTNYADSVKGRFTISRDNAKNTVYLQMNSLKPEDTAVYYCNTDDGWRLLWEYDYWGQGTQVTVSS | low polyreactivity
2 | QVQIVESGGGLVQAGGSLRLSCAASGSIFRKNAMGWYRQAPGKERELVAAITRRGGSTYYADSVKARFTISRDNAKNTVYLQMNSLKPEDTAVYYCAATGGAPYKIEWGQGTQVTVSS | low polyreactivity
3 | QVQLVESGGGLVQAGGSLRLSCAASGRTVSYYAMGWYRQAPGKEREFVAAISSSGGSTNYADSVKGRFTISRDNAKNTVYLQMNSLKPEDTAVYYCNAGSGYTGVYRWYYWRYDYWGQGTQVTVSS | low polyreactivity
4 | QGKLVESGGGLVQAGGSLRLSCAASGLTFGSNTMGGYRQAPGKERELVAAITSNGGSTYYADSVKGRFTISRDNAKNTVYVQMNSLKPEDTAVYYCAARSYDGYYRYYYWGQGTQVTVSS | low polyreactivity
5 | QVQLVESRGGLVQAGGSLRLSCAASGFTFGWYAMGWYRQSPGKERELVAAITSGGSTKYADSVKGRFTISRDNAKNTVYLEMNSLKPEETAVYYCAAKRLGQYRPYTYGYWGQGTQVTVSS | high polyreactivity
6 | QVQLVESGGGLVQAGGSLRLSCAASGLIFRHYVMGWYRQAPGKERELVAAITSRGGTTYYADSVKGRFTISRDNAKNTVYLQMNSLKPEDTAVYYCNVVQNSRHGYTSYYWGQGTQVTVSS | high polyreactivity
7 | QVQLVESGGGLVQAGGSLRLTCAASGINCVWYAMGWYRQAPGKERELVAAIRSGGITNYADSVKGRFTISRDNAQNTVYLQMNSLKPEDTAVYYCAAPYRTDTGDDYWGQGTQVTLSS | low polyreactivity
8 | QVQLVESGGGLVQAGGSLRLSCAASGRIFGYNAMGWYRQAPGKERELVAAINSDGSKNYADSVKGRFTISRDNAKNTVYLQMNSLKPEDTAVYYCAADGHVGPLGVSFDSWGQGSQVTVSS | low polyreactivity
9 | QLQLVDSGGGVVQAGGSLRLSCAASGSTYAQYVMGWYRPATGKEKELVAAISLSGGSTYYAASVKGRFTISRDNAKNTVYLQMNSLKPVDTAVYYCSARGYGPGLYSSRQNEYYYWGQGTQVTVSS | high polyreactivity
10 | QVQLVESGGGLVQAGGSLRLSCAASGRTFRVYSMGWYRQAPGKERDFVAAITDSGGRTYYADSVKGRFTISRDNAKNTVYLQMNCLKPEDTAVYYCNAYQYYERYDTYLFRYDYWGQGTQVTVSS | low polyreactivity
11 | QVQLVESGGGLVQAGGSLRLSCAPSGNTFEHYAMGWYRQAPGKERELVAAISYSGGSTYYADSVKGRFTISRDNAKNTVYLQMNSLKPEDTAVYYCNARGRASATGRRGRPDPFGYWGQGTQVTLSS | high polyreactivity
12 | QVQLVESGGGIVQAGGSLRLTCAASGRIFIYYYMGWYRQAPGKERELVADITLSGGSTYYADSVKGRFTISRDNAKNNVYLQMTSLKPEDTAVYYCAATRRYWKIFFGDGDYWGQATQVTVSS | high polyreactivity
13 | QVQLVESGGGLVQAGGSLRLSCAASGSIFNRYTMGSYRQAPGKEREFVAAISSSGTSTYYADSVKGRFTISRDNAMNTVYLQMNSLKPEDTAVYYCAADYYRTPKSGSSGLDYWGQGTQVTVSS | low polyreactivity
14 | QVQLVESGGGLVQAGGSLRLSCAASGSTFDFYPMGWYRQAPGKERELVAAIRIGGNPNYADSVKGRLTISRDNAKNTVYLQLNSLKPEDTAVYYCARDDTYDTPLSPYDYWGQGTQVTVSS | low polyreactivity
15 | QVQLLESGGGLVQAGGSLRLTCAASGRTFGRYAKGWYRQAPGKERELVADITGGGSTNYADSVKGRFTISRDNAKNTVYLQMKSLKPEDTAVYYCAAGFHKRVTPEILYDYWGQGTQVTVSS | low polyreactivity
16 | QVQLVESGGGLVQAGGSLRLSCAASGSIFVPYAMGWYRQAPGKERELVAAITYSDGSTYYADSVKGRFTISRDNEKNTVYLQMNSLKPEDTAVYYCATYPQYYFRYDYWGQGTQVTVSS | high polyreactivity
17 | QVQLVESGGGLVQAGGSLRLSCAASGRIFYYYAMGWYRQAPGKERELVATITTSGKTYYADSVKGRFTISRDNAKNTVYLQMNSLKPEDTAVYYCNAGWDLVYGYYPRRKNFDYWGQGTKVTVSS | high polyreactivity
18 | QVQLVESGGGLVQAGGSLRLSCAASGSTSQRNAMGWYRQAPGKERELVAGITTSGGRTYYADSVKGRFTISRDNAKNTVYLQMNSLKPEDTAVYYCAARTQIWKYRGYYSWGQGTQVTVSS | high polyreactivity
19 | QVQLVESGGGIVQAGGSLRLSCADSGFTFAFYAMGRYRQAPRKERELVAAISSGGGNTYYADSVKGRFTISRDNAKNTVYLQMNSLNPEDTAVYYCATRYISQGGYWGQGTQVTVSS | high polyreactivity
20 | QVQLVESGGGLVQAGGSLRLSCAASGSIFARYAMGWYRQAPGKERELVATISYRGSSTYYADSVKGRFKISRDNAKNTVYLQMNRLKPEDTAVYSCAARTYRRIYAYYRLDYWGQGTQVTVSS | low polyreactivity
21 | QVQLVESGGGLVQAGGSLRLSSAASGFTFIRSTMGWYRQAPGKEREFVAAITWSGDSTYYADSVKGRFTISRDNAKNTVYLQMNSLKPEDTAVYYCAAESDPYSPEYDYWGQGTQVTVSS | low polyreactivity
22 | QVQHVESGGGLVQAGGSLRLSCAASGRIFGSNAMGWYRQPPGKDRELVAAITWSGGSTYYADSVKGRFTISRDNAKNTVYLQMNSLKPEDTAVYDCAAPASRTKGPFPGYDYWGQGTQVTVSS | high polyreactivity

Row | Sequence | polyreactivity (PSR sort gate)
23 | QVQLVDSGGGLVQAGGSLRLSCAASGRTFAYNDMGWYRQAPGKERELVAAISWSDGTTYYADSVKWRFTISRDNAKNTVYLQMNRLKPEDTAVYYCAAVSIYWGQGTQVTVSS | low polyreactivity
24 | QVQLVESGGGLVQAGGSLRLSCAASGYIFSGYAMGWYRQAPGKERELVAAISSNGGSTYYADSVKGRFTISRDNAKNTVYLQMISLKPEDTAVYYCNRGLAARVGRGDYWGQGTQVTVSS | low polyreactivity
25 | QVQLVESGGGLVQEGGSLRLSCAASGLIFGENAMGWYRQAPGKERELVAAISRRAGITYYADSVKGRFTISRDNAKNTVYLQMNSLKPVDTAVYYCAARKGAISSPYDYWGQGTQVTVSS | high polyreactivity
26 | QVQLVESGGALVQAGCSLRLSCAASGITFAPYAKGWYRQAPGKEREMVAGINTGGSTYYADSVKGRFTISRDNAKYTVYLQMNSLKPEDTADYYCATESYPADQDIPGSDYWGQGTQVTVSS | low polyreactivity
27 | QVQLVESGGGLVQAGGSLRLSCAASGRTFSYYAMGWYRQATGKERELVAAINSSGGRTYYADSVKGRFTISRDNAKNTVYLQMNSLKPEDTAVYYCAARSYSTSSHHGYWGQGTQVTVSS | high polyreactivity
28 | QVQLVESGGGLVQAGGSLRLSCADSGSTFNSNVMGWYRQAPGKERELVAAISRSGGNTYYADSVKGRFTISRDNAKNTVYLQMNSLKPEDTAVYYCNKDGRYPYDYWGQGTQVTVSS | high polyreactivity
29 | QVQLVESGGGLVQAGGSLRLSCAASGSIFRPYAMGWYRQAPGKERELVATITWSGGSTYYADSVKGRFTISRDNAKNTVYLQMNSLKPEDTAVYYCAADPDLLWEYSDGYYGGDGGYWGQGTQVTVSS | low polyreactivity
30 | QVQLVESGGGIVQAGGSLRLSCAASGFIFLPYAMGWYRQAPGKERELVARISRSGASTYYADSVKGRFTISRDNAKNTVYLQMNSLKPEDTAVYYCNAVTSWPRRDFDYWGQGTQVTVSS | high polyreactivity
31 | QVQLEESGGGIVQAGGSLRLRCAAAGRSVYYYAMAWYRQAPGKEREFVADITARGGSTYYADSVKGRFTISRDNAKNSVYLQMNSLKPEDTAVYYCAAYIYVTYYYWGQGTQVTVSS | high polyreactivity
32 | QVQLVESGGGLVQAGGSLRLSCAASGLIFQYYAMGWYRPAPGKERELVAAISSDGNTYYADSVKGRFTISRDNAKNTVYLQMNSLKPEDTAVYYCAADWYIAYSEYGYWGQGTKVTVSS | low polyreactivity
33 | QVQLVESGGGVVQAGGSLRLSCAASGTIFYENAMGWYRQAPGKEREFVATIDLIGDRTYYADSVKGRFTISRDNAKNTVYLQMNSLKPEDTAVYYCAAERVGVFFRYDYWGQGTQVTVSS | low polyreactivity
34 | QVQLVESGGGLVQAGGSLRLSCAASGRIFSVYAMGWYRQAPGKEREFVASISWRGGRTYYADSVKGRFTISRDNAKNTVYLQMNSLKPEDTAVYYCNAPQRYWPPYGYWGQGTQVTVSS | high polyreactivity
35 | QVQLVESGGGLVQAGGSLRLRCAASGLTFWGYPMGWYRQAPGKEREFVASITSGGGSTYYADSVKGRFTISRDNAKNTVYLQMNILNPEDTAVYYCNVDVHLYLYKSYTYRYYYWGQGTQVTVSS | low polyreactivity
36 | QVQLVESGGVIFQAGGILRLICAASGRIFARNAMGWYRQAPGKERELVAAISRSGGPTYYADSVKGRFTISRDNAKNSVYLQMNSLKTEDTGVYYCAADHYPWWAWEFDYWGQGTQVTVSS | low polyreactivity
37 | QVQLVESGGGLVQAGGSLRLSCAASGRNILPYAMGWYRPSPGKERELVAAISVSGVITYYAESVKGRFTISRDNAKNTVYLQMNSLKPEDTEVYYCASDYTPRRWGRLYDYWGQGTQVTVSS | low polyreactivity
38 | QVQLQESGGGLVQAGGSLRLSCAASGSSSILHSMGWYRQAPRKERELVAGINWGATTYYADSVKGRLTTSRDYAKNTVYLQMNSLKPEDTAVYYCAVPTYYPYPLLYWGQGTQVTVSS | low polyreactivity
39 | QVQLVESGGGLVQAGGSLRLSCAASGITFELNTMGWYRQAPGKEMELVAVITQNGGSTYYADSVKGRFTISRDNAKNTVYLQMNSLKPEDTAVYYCAATYVWSYLYLIRFYYWGQGTQVTVSS | high polyreactivity
40 | QVQLVESGGGLVQAGGSLRLSCAASGRIFDPYAMGWYRQAPGKEREVVASISWSGGRTYYADSVKGRFTISRDNAKNTVYLQMNSLKPEDTAVYYCAARQWYRYKVRIDYWGQGTQVTVSS | high polyreactivity
41 | QVQLVESGGGLVQAGGSLRLSCAASGITFLYYAMGGYRQAPGKERELVAAITSGGSTYYADSVKGRFTISRDNAKNTVYLQMNSLKPEDTAVYYCAAGTYDGGYHYDYWGEGTQVTVSS | high polyreactivity
42 | QVQLVESGGGLVQAGGSLRLSCAASGFTFRAYAMGWYRQAPGKASELVATISGRGGSTYYADSVKGRFPISRDNAKNTVYLQMNSLKPEDTAVYYCARRFWSEYVTGVGGYNFWGQGTQVTVSS | high polyreactivity
43 | QVQLVESGGGLVQAGGSLRLSCAASGYIFWWNAMGWYRQAPGKERELVAGISWSGSPTYYADSVKGRFTITRDNAKNTVYLQMNSLKPEDTAVYYCNAAAITLYDYDYWGQGTQVTVSS | low polyreactivity
